Data set [1] deals with His-MS2-MBP (MS2 coat protein fused to maltose binding protein) (bacteriophage MS2) (UniProt P03612). Nature of the data set: SPR. The conditions noted are these: kon/koff fit, HBS-EP+; SPR: HBS-EP+ running buffer, Biacore X100, binding temperature not given; gel cleavage: 500 uM MgCl2, 150 mM NaCl, 1 mM DTT, 10 mM HEPES pH 7.4, 37 C.
Data set [2] has the same target. Nature of the data set: ribozyme cleavage inhibition (gel). The conditions noted are these: SPR: HBS-EP+ running buffer, Biacore X100, binding temperature not given; gel cleavage: 500 uM MgCl2, 150 mM NaCl, 1 mM DTT, 10 mM HEPES pH 7.4, 37 C.

Sequence of UniProt P03612 (P03612 whole entry, the tested form may be a part): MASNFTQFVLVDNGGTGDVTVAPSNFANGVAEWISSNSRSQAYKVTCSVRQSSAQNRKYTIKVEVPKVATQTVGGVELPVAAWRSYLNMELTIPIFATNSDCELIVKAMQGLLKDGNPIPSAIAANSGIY

On to “GCUGUCACCGGAAUCAAGGUCCGGUCUGAUGAGUCCGACCAUCAGGAGGACGAAACAGC [MS2-B3]”, for which the Kd in data set [1] was 296 nM.
For “GCUGUCACCGGAAUCAAGGUCCGGUCUGAUGAGUCCGUUGUCCACCAUCAGGGGACGGGACGGAGGACGAAACAGC [MS2-A2]”, the IC50 in data set [2] was determined as 19 nM. The same sequence returned a Kd in data set [1] of 6.08 nM.
On to “GCUGUCACCGGAUGUGCUGCAGGAUCACCGCAUUUCCGGUCUGAUGAGUCCGUGAGGACGAAACAGC [MS2-B1]”, for which the Kd in data set [1] is 630 nM.
On to “GCUGUCACCGGAUGUGCUUUCCGGUCUGAUGAGUCCGUGGUCCACCAUCAGGGGACUGGACUGAGGACGAAACAGC [MS2-A3]”, for which, in data set [1], the Kd was 253 nM.
In the case of “GCUGUCACCGGAUGUGCUUUCCGGUCUGAUGAGUCCGUUGCGUAGGAUCACCACGUGGCGCGGAGGACGAAACAGC [MS2-A8]”, in data set [1], the Kd stood at 50 nM.
Turning to “GCUGUCACCGGAUGUGCUUUCCGGUCUGAUGAGUCCGUUGUCCAGGAUCACCGGACGGGACGGAGGACGAAACAGC [MS2-A1]”, the IC50 in data set [2] came out at 63 nM. This sequence had a Kd in data set [1] of 24.5 nM.
Sequence “GCUGUCACCGGAUGUGCUUUCCGGUCUGAUGAGUCCGUUGUCCUAGGAUCACCAGGAAGGGACGGAGGACGAAACAGC [MS2-A7]” showed a Kd in data set [1] of 279 nM.
With “GCUGUCACCGGAUGUGGUUUCCGGUCUGAUGAGUCCGACCAUCAGGAGGACGAAACAGC [MS2-B2]”, the Kd in data set [1] came to 237 nM. The Kd values of the last two sequences are within 1.5-fold of each other.
With “GCUGUCACCGGAUUCGGGAUCCGGUCUGAUGAGUCCGACCAUCAGGAGGACGAAACAGC [MS2-B4]”, the Kd in data set [1] was 224 nM.

The values above are taken from article PMC4231745.
